How the values were obtained:
[1] = tested on: HeLa Kyoto; assay: solubility in G1/S (NP-40 vs SDS abundance) (log2 ratio); higher = more soluble; conditions: cell cycle stage: G1/S
[2] = tested on: HeLa Kyoto; assay: melting temperature (median over replicates), in situ; higher = more thermally stable
[3] = tested on: HeLa Kyoto; assay: solubility change mitosis vs G1/S (difference of NP-40 vs SDS log2 ratios) (log2 ratio difference); higher = more soluble in mitosis
[4] = tested on: HeLa Kyoto; assay: thermal stability score vs G1/S (z-score of summed log2 fold changes over temperatures); higher = more thermally stable than in G1/S
[5] = cell cycle stage: early G1 (4.5 h after nocodazole release)
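Throughout, for melting temperature (median over replicates), in situ: HeLa Kyoto cells synchronized by double thymidine or nocodazole block, proteins quantified by TMT10plex mass spectrometry, three independent biological replicates.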
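Throughout, for solubility change mitosis vs G1/S (difference of NP-40 vs SDS log2 ratios): synchronized HeLa Kyoto cells (double thymidine block for G1/S, nocodazole release for mitosis), protein amounts in NP-40 versus SDS lysates quantified by mass spectrometry, three biological replicates.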
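Throughout, for solubility in G1/S (NP-40 vs SDS abundance): HeLa Kyoto cells arrested at G1/S by double thymidine block, proteins quantified by TMT10plex mass spectrometry in mild NP-40 versus SDS extracts, three biological replicates.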
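Throughout, for thermal stability score vs G1/S (z-score of summed log2 fold changes over temperatures): synchronized HeLa Kyoto cells, proteins quantified by TMT10plex mass spectrometry, three biological replicates, mitosis taken 0.5 h after nocodazole release, G1/S directly after double thymidine block.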

Substance	solubility in G1/S (log2) [1]	melting temperature ([2]; cell cycle stage: G1/S)	melting temperature ([2]; cell cycle stage: mitosis)	solubility change mitosis (log2) [3]	thermal stability score [4, 5]	thermal stability score ([4]; cell cycle stage: mitosis)
MRPGAPGPLWPLPWGALAWAVGFVSSMGSGNPAPGGVCWLQQGQEATCSLVLQTDVTRAECCASGNIDTAWSNLTHPGNKINLLGFLGLVHCLPCKDSCDGVECGPGKACRMLGGRPRCECAPDCSGLPARLQVCGSDGATYRDECELRAARCRGHPDLSVMYRGRCRKSCEHVVCPRPQSCVVDQTGSAHCVVCRAAPCPVPSSPGQELCGNNNVTYISSCHMRQATCFLGRSIGVRHAGSCAGTPEEPPGGESAEEEENFV [FSTL3]	-0.141	51.7 °C	54.8 °C	0.0887	2.88	2.67
HNRNPK	0.317	49.7 °C	49.9 °C	0.0123	-0.521	2.21
MAGSRQRGLRARVRPLFCALLLSLGRFVRGDGVGGDPAVALPHRRFEYKYSFKGPHLVQSDGTVPFWAHAGNAIPSSDQIRVAPSLKSQRGSVWTKTKAAFENWEVEVTFRVTGRGRIGADGLAIWYAENQGLEGPVFGSADLWNGVGIFFDSFDNDGKKNNPAIVIIGNNGQIHYDHQNDGASQALASCQRDFRNKPYPVRAKITYYQNTLTVMINNGFTPDKNDYEFCAKVENMIIPAQGHFGISAATGGLADDHDVLSFLTFQLTEPGKEPPTPDKEISEKEKEKYQEEFEHFQQELDKKKEEFQKGHPDLQGQPAEEIFESVGDRELRQVFEGQNRIHLEIKQLNRQLDMILDEQRRYVSSLTEEISKRGAGMPGQHGQITQQELDTVVKTQHEILRQVNEMKNSMSETVRLVSGMQHPGSAGGVYETTQHFIDIKEHLHIVKRDIDNLVQRNMPSNEKPKCPELPPFPSCLSTVHFIIFVVVQTVLFIGYIMYRSQQEAAAKKFF [LMAN1]	0.173	53.3 °C	53.5 °C	-0.0873	3.5	5.07
MASRGRRPEHGGPPELFYDETEARKYVRNSRMIDIQTRMAGRALELLYLPENKPCYLLDIGCGTGLSGSYLSDEGHYWVGLDISPAMLDEAVDREIEGDLLLGDMGQGIPFKPGTFDGCISISAVQWLCNANKKSENPAKRLYCFFASLFSVLVRGSRAVLQLYPENSEQLELITTQATKAGFSGGMVVDYPNSAKAKKFYLCLFSGPSTFIPEGLSENQDEVEPRESVFTNERFPLRMSRRGMVRKSRAWVLEKKERHRRQGREVRPDTQYTGRKRKPRF [WBSCR22]	-0.361	52.9 °C	52.9 °C	0.0973	1.09	0.578
MAITLEEAPWLGWLLVKALMRFAFMVVNNLVAIPSYICYVIILQPLRVLDSKRFWYIEGIMYKWLLGMVASWGWYAGYTVMEWGEDIKAVSKDEAVMLVNHQATGDVCTLMMCLQDKGLVVAQMMWLMDHIFKYTNFGIVSLVHGDFFIRQGRSYRDQQLLLLKKHLENNYRSRDRKWIVLFPEGGFLRKRRETSQAFAKKNNLPFLTNVTLPRSGATKIILNALVAQQKNGSPAGGDAKELDSKSKGLQWIIDTTIAYPKAEPIDIQTWILGYRKPTVTHVHYRIFPIKDVPLETDDLTTWLYQRFVEKEDLLSHFYETGAFPPSKGHKEAVSREMTLSNLWIFLIQSFAFLSGYMWYNIIQYFYHCLF [LPGAT1]	-0.142	51.1 °C	51.3 °C	-0.152	0.187	-0.757
MAEAEEQETGSLEESTDESEEEESEEEPKLKYERLSNGVTEILQKDAASCMTVHDKFLALGTHYGKVYLLDVQGNITQKFDVSPVKINQISLDESGEHMGVCSEDGKVQVFGLYSGEEFHETFDCPIKIIAVHPHFVRSSCKQFVTGGKKLLLFERSWMNRWKSAVLHEGEGNIRSVKWRGHLIAWANNMGVKIFDIISKQRITNVPRDDISLRPDMYPCSLCWKDNVTLIIGWGTSVKVCSVKERHASEMRDLPSRYVEIVSQFETEFYISGLAPLCDQLVVLSYVKEISEKTEREYCARPRLDIIQPLSETCEEISSDALTVRGFQENECRDYHLEYSEGESLFYIVSPRDVVVAKERDQDDHIDWLLEKKKYEEALMAAEISQKNIKRHKILDIGLAYINHLVERGDYDIAARKCQKILGKNAALWEYEVYKFKEIGQLKAISPYLPRGDPVLKPLIYEMILHEFLESDYEGFATLIREWPGDLYNNSVIVQAVRDHLKKDSQNKTLLKTLAELYTYDKNYGNALEIYLTLRHKDVFQLIHKHNLFSSIKDKIVLLMDFDSEKAVDMLLDNEDKISIKKVVEELEDRPELQHVYLHKLFKRDHHKGQRYHEKQISLYAEYDRPNLLPFLRDSTHCPLEKALEICQQRNFVEETVYLLSRMGNSRSALKMIMEELHDVDKAIEFAKEQDDGELWEDLILYSIDKPPFITGLLNNIGTHVDPILLIHRIKEGMEIPNLRDSLVKILQDYNLQILLREGCKKILVADSLSLLKKMHRTQMKGVLVDEENICESCLSPILPSDAAKPFSVVVFHCRHMFHKECLPMPSMNSAAQFCNICSAKNRGPGSAILEMKK [VPS41]	-0.0889	50.2 °C	49.8 °C	-0.131	0.549	0.342

Reference: the supplement of paper PMC5998384
